# Measured values taken from patent US20090325262A1, “Immobilization of biological molecules onto surfaces coated with monolayers” (SURFACE LOGIX, INC., priority 2001, published 2009).
# Legend:
# [1] = system: CCCC(=O)Oc1ccc([N+](=O)[O-])cc1; test: purified protein, by the assay type; settings: other: substrate of recombinant cutinase; release of PNP followed by absorbance
# Method: The cutinase concentration was 1 M. The release of PNP was followed using absorbance spectroscopy.
# Spectrophotometric measurement was performed at room temperature using BECKMAN DU-640 spectrophotometer (BECKMAN COULTER, INC., Fullerton, Calif.). Esterase activity of purified recombinant cutinase was measured by monitoring p-nitrophenol butyrate (PNB) hydrolysis rates at 410 nm (=8,800 M-1 cm-1) in buffer A.
# [2] = biological target: biotin-NH-Arg-Asp-Cys-CONH2; test: SPR, fibrinogen (0.5 mg/mL) flowed over 2% maleimide SAM treated with the peptide; FIG. 4
# [3] = biological target: biotin-NH-Arg-Asp-Cys-CONH2; test: SPR (Biacore 3000), streptavidin flowed over 2% maleimide SAM treated with the peptide (1.2 mM, 12 min); FIG. 3 sensorgram A
substance,measurement,setting,value
cutinase (Fusarium vanettenii),Km,[1],1000 µM
fibrinogen,SPR response (RU),[2],60 RU
streptavidin (from UniProt P22629 37-163),SPR response (RU),[3],2280 RU
